Measurements as given in paper PMC3299731 (PLoS ONE, 2012).
Substitutions are numbered along the chain they refer to.

B1: Mutant of basic-2 motif of human translin, homomeric, N-terminal 6×His tag (natural protein, UniProt Q15631 1-228, looked up)
chain: MSVSEIFVELQGFLAAEQDIREEIRKVVQSLEQTAREILTLLQGVHQGAGFQDIPKRCLKAREHFGTVKTHLTSLKTKFPAEQYYTFNENWRFVLQRLVFLAAFVVYLETETLVTREAVTEILGIEPDREKGFHLDVEDYLSGVLILASELSRLSVNSVTAGDYSRPLHISTFINELDSGFRLLNLKNDSLRKRYDGLKYDVKKVEEVVYDLSIRGFNKETAAACVEK
notes: human translin with the B2 motif mutated, expressed from pQE9-translinB2; also called translinB2; translinB2 mutant; source: E. coli BL21(DE3), pQE9-translinB2, purified (Ni-IDA, Q-sepharose, Superdex 200); not shown: 6×His, N-terminal, kept
B2: Mutant of basic-3 motif of human translin, homomeric, N-terminal 6×His tag (natural protein, UniProt Q15631 1-228, looked up)
chain: B1 chain with T86R, N88H, N90H, R192T, K193N, R194S, Y195N
notes: human translin with the B3 motif mutated, expressed from pQE9-translinB3; also called translinB3; translinB3 mutant; source: E. coli BL21(DE3), pQE9-translinB3, purified (Ni-IDA, Q-sepharose, Superdex 200); not shown: 6×His, N-terminal, kept
B3: Bcl-CL1 24-mer (ssDNA)
DNA: GCCCTCCTGCCCTCCTTCCGCGGG

Assays:
[1] = molecular target: the molecule itself; experiment: SEC; purified homomeric 6×His-translin proteins on Superdex 200 10/300 GL calibrated with molecular weight markers (29-440 kDa); octamer
translin [2] = molecular target: T1, translin (human, UniProt Q15631 1-228); experiment: EMSA; 50 nM octamer, 100 nM DNA; 25 mM Tris-HCl pH 8.0, 100 mM NaCl, 1 mM EDTA, 30 min; temperature not stated; 4.5% native PAGE in 0.5x TBE; conditions: protein: recombinant; tags: N-terminal 6xHis; chain copies: 8; label: 5'-32P (unlabeled in agarose EMSA)
translin [3] = molecular target: T1, translin; experiment: UV-laser crosslinking (248 nm); 50 pmol each in 50 uL; 25 mM Tris-HCl pH 8.0, 100 mM NaCl, 1 mM EDTA, 30 min; temperature not stated; 4.5% native PAGE in 0.5x TBE; conditions: protein: recombinant; tags: N-terminal 6xHis; chain copies: 8; label: 5'-32P (unlabeled in agarose EMSA)

| Binder | stoichiometry N [1] | binding result (translin [2]) | binding result (translin [3]) |
| --- | --- | --- | --- |
| B1 | 8 | – | – |
| B2 | 8 | – | – |
| B3 | – | binds | binds |
